Test results: publication PMC7247818 (2020)
Where no end group is shown, it is not given here. [ ]: non-standard residue; d: D form. The star is where a group is joined. pY = N[C@@H](Cc1ccc(OP(=O)(O)O)cc1)C(=O)O; Dansyl = CN(C)c1cccc2c(S(=O)(=O)*)cccc12

Target: T1, Gab2 448-460 (Homo sapiens)
T1 chain: Dansyl-TNSEDN[pY]VPMNPG
Assay: stopped-flow FRET

B1: PI3K p85alpha N-SH2 N-SH2 (protein)
chain: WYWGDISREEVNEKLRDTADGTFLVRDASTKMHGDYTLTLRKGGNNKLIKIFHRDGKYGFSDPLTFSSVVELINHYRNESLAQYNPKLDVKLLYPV
Kd: 200 nM
